Laboratory results from US6436654B1, “Methods for identifying compounds that modulate HIF-1α” (Pharmacia & Upjohn AB, priority 1998, dated 2002).
Values belong to the molecule of their own block, whether it stands above or below them.

How the values were obtained:
[1] = tested on: COS7 cells; experiment: Subcellular distribution of GFP-HIF-1α chimeras in living cells (fluorescence microscopy, cell counting); type: cell-based, simian
[2] = tested on: GAL4 responsive reporter plasmid; experiment: Cotransfection of GAL4-HIF-1α fusion proteins with GAL4 responsive luciferase reporter; type: cell-based, simian
Excerpt: To analyze functional activities of HIF-1α independently of the endogenous DNA binding and dimerization domains and the Arnt partner, we next fused HIF-1α to the heterologous DNA binding domain of GAL4. Functional activity of the fusion protein was monitored in COS7 cells by a cotransfection assay using a reporter gene construct carrying five GAL4 DNA binding elements in front of thymidine kinase promoter and the luciferase gene. Six hours after transfection media was changed, and cells were either left uninduced or exposed to 1% oxygen for 30 h prior to harvest. In the presence of either empty expression vector or a vector expressing the minimal GAL4 DNA binding domain, reporter gene activity was unaltered by reduced oxygen levels. […] The GAL4 DNA binding domain is known to harbor an NLS motif capable of taking fusion proteins to the nucleus (Ma and Ptashne (1987) Cell 51, 113-119). We therefore used antibodies directed against the DNA binding domain of GAL4 to examine in both normoxic and hypoxic cells the intracellular localization of the GAL4-HIF-1α fusion protein by immunofluorescence.
Transcriptional activity of GFP and GAL4 fusion constructs was analyzed in a cotransfection assay where effector plasmids (0.2 μg/30-mm dish) together with a reporter gene (1.5 μg/30-mm dish) were introduced into COS7 or HeLa cells. […]

[3] = target: GST/Ref-1 (Homo sapiens, UniProt P27695); experiment: Pull-down of [35S]methionine-labeled GAL4/HIF proteins with GST/Ref-1; type: binding; settings: presence or absence of diamide
GST/Ref-1, sequence (P27695 whole entry, species assumed, the tested form may be a part): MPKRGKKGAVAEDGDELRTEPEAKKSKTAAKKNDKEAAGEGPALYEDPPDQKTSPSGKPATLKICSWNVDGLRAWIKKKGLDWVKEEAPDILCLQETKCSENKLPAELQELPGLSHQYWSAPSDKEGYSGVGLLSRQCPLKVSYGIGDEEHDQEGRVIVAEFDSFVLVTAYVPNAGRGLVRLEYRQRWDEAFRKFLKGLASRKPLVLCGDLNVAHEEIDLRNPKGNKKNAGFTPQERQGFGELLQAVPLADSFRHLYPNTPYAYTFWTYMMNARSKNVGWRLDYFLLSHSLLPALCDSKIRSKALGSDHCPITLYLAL
Protocol: The precise mechanism by which Ref-1 activates HIF-1α is not known. […] To further investigate whether Ref-1 could interact with HIF-1α, we tried to trap the interaction by using a crosslinking reagent such as diamide, which oxidizes cysteine sulfhydryls to disulfides. A series of experiments was performed with GST-tagged purified Ref-1. [^35S]methionine-labeled in vitro translated GAL4/HIF 1-826 was incubated with GST/Ref-1 in the presence or absence of diamide.
Next, we tried a series of pull-down experiments with [^35S]methionine-labeled in vitro translated GAL4/HIF […] and GAL4/HIF 531-584. […] An interaction between GAL4/HIF […] and GST/Ref-1 was also detected, and this interaction was enhanced in the presence of diamide. In excellent agreement with this observation the C-TAD contains two cysteine residues. […] Immunoblot analysis verified that the input concentrations of GST/Ref-1 or GST alone were similar.

[4] = target: T1, HIF-1α/Arnt complex (Homo sapiens, UniProt Q16665); experiment: pT81/HRE-Luc reporter assay with HIF-1α, Arnt and coactivators (CBP, TIF2, SRC-1); type: cell-based
T1 construct: expression plasmid for full-length HIF-1α (pCMV-HIF-1α); expressed in transfected cells
T1 sequence (Q16665 whole entry): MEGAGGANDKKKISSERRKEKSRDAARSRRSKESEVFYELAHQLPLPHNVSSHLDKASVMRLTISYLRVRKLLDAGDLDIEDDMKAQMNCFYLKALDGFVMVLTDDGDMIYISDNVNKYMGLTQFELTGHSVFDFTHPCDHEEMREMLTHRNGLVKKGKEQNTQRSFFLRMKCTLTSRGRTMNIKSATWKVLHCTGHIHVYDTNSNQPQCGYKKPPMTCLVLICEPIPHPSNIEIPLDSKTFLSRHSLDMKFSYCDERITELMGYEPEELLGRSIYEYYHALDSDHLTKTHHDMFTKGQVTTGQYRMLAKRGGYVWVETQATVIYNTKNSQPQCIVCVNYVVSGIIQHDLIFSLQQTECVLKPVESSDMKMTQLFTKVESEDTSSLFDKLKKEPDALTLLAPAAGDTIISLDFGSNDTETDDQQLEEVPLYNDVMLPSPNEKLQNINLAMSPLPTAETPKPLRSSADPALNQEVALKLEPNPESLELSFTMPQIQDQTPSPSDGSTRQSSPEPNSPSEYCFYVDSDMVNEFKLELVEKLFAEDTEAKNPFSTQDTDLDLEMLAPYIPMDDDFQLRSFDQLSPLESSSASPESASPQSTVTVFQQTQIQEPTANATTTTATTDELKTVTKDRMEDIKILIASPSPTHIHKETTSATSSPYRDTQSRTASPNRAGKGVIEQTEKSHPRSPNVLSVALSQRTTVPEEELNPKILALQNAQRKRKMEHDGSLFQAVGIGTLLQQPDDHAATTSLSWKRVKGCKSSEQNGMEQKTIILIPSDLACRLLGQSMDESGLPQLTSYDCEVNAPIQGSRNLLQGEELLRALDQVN
T1 sequence (P27540 whole entry partner): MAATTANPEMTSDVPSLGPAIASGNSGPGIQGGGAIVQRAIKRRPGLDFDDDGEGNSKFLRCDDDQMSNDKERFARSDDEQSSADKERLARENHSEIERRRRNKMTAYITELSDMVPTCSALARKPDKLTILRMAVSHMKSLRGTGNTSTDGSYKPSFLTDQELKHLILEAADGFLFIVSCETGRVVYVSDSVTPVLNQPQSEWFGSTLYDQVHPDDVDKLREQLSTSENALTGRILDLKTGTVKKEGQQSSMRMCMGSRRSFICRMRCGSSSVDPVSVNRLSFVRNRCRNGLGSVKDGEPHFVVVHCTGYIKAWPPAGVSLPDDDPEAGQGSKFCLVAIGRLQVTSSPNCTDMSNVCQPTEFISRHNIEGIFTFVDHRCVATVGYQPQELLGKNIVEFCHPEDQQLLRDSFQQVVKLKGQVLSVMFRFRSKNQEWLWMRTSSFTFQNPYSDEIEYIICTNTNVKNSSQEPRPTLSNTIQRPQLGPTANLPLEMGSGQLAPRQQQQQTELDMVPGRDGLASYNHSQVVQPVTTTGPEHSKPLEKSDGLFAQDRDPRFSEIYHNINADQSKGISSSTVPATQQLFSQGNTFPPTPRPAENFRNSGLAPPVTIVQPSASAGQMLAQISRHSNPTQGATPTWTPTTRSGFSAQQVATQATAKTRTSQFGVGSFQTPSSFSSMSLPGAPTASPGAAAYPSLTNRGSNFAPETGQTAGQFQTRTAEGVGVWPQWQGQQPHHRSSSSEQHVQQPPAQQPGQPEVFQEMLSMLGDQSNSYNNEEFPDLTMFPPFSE
Protocol: FIG. 8 The transcriptional coactivator TIF2 enhances the HIF-1α-mediated transactivation function and interacts with HIF-1α in vivo. COS7 cells were transiently cotransfected as described in Materials and Methods with 0.5 μg pT81/HRE-Luc reporter construct, hHIF1-α expression vector (pCMV4/HIF-1α, 0.2 μg), Arnt expression vector (pCMV4/Arnt, 0.2 μg) and 0.75-1.5 μg of either TIF2 (pSG5/TIF2) or CBP (Rc/RSV-CBP-HA), as indicated. The total amount of DNA was kept constant by the addition of parental pCMV4 when appropriate. Following transfection cells were incubated either under normoxic (21% O2) or hypoxic conditions (1% O2). Luciferase activities were normalized for transfection efficiency by cotransfection of alkaline phosphatase expressing pRSV-AF. Data are presented as luciferase activity relative to cells transfected with pCMV4 and reporter gene only and incubated at normoxia. Values represent the mean ±S.E. of two independent experiments.
(§1) FIG. 9 The transcriptional coactivator SRC-1 stimulates HIF-1α activity in a hypoxia-dependent manner and interacts in vitro with HIF-1α. (A) COS7 and (B) human embryonic kidney 293 cells were cotransfected with pT81/HRE-Luc (0.5 μg), 0.2 μg of pCMV4/HIF-1α (hHIF1-α), 0.2 μg of pCMV4/Arnt (Arnt), and 0.75-1.5 μg of SRC-1 (pSG5/SRC-1), as indicated. Six h after transfection cells were exposed to either 21 or 1% O2 for 36 h before harvest. Luciferase values are presented as relative luciferase activity as described in the legend to FIG. 1. The results of three independent experiments performed in duplicate ±S.E. are shown. (C) SRC-1 PAS domain is not required for functional interaction with HIF-1α. (Top) Schematic representation of full-length SRC-1 and SRC-1ΔPAS. (Bottom) pGAL4/HIF 71-826 was cotransfected into COS7 cells together with a reporter plasmid expressing the luciferase gene driven by the thymidine kinase minimal promoter under the control of five copies of GAL4-binding sites, and 1.5 μg of either full-length SRC-1 or a deletion mutant of SRC-1, SRC-1ΔPAS, lacking the PAS domain. Cells were exposed to 21 or 1% O2 for 36 h before harvest and reporter gene assays. Luciferase values are presented as relative luciferase activity as described in the legend to FIG. 1. The results of two independent experiments performed in duplicate +S.E. are shown. (D) In vitro interaction between SRC-1 and HIF-1α. COS7 cells were transfected with 10 μg of the expression plasmid pGST-HIF-1α (GST-HIF) or empty GST expression vector (GST). Cells were exposed to either 100 μM CoCl2 or vehicle (H2O) for 24 h. […] The eluted material was analyzed on 5% SDS-PAGE and visualized by fluorography. ⅕×Input represents one-fifth of the amount of [^35S]methionine-labeled SRC-1 used in the binding reactions. […]

[5] = tested on: hypoxia responsive reporter gene (HRE-luc); experiment: Cotransfection of GFP-HIF-1α fusion constructs with hypoxia responsive reporter gene (HRE-luc); type: cell-based, simian; settings: 1% O2 vs normoxia, no CBP
Excerpt: We next examined the ability of GFP-HIF-1α fusion proteins in functional cotransfection assays where GFP-HIF-1α expression vectors were introduced into COS7 cells together with a hypoxia-responsive gene reporter construct carrying three tandem copies of the erythropoietin hypoxia responsive element (HRE) in front of the Herpes simplex thymidine kinase promoter and the luciferase gene. […] This reporter gene activity was further stimulated about 4-fold by hypoxia (FIG. 6A). In control experiments, transient expression of wild-type HIF-1α also yielded a similar pattern of reporter gene activation, albeit with a slightly lower potency generating about a 2-fold activation response upon exposure to hypoxia. […] In fact, stabilization of the fusion protein (FIG. 2C) by the GFP moiety may rather have enhanced the potency of the activation response produced by HIF-1α.
Transcriptional activity of GFP and GAL4 fusion constructs was analyzed in a cotransfection assay where effector plasmids (0.2 μg/30-mm dish) together with a reporter gene (1.5 μg/30-mm dish) were introduced into COS7 or HeLa cells. The reporter plasmid encoded firefly luciferase gene under the control of thymidine kinase minimal promoter and either five or three copies of GAL4 or HIF-responsive elements, respectively.

[6] = target: T2, GST-HIF-1α (Homo sapiens, UniProt Q16665); experiment: GST precipitation assay of in vitro translated [35S]labeled SRC-1 with GST-HIF-1α; type: binding
T2 construct: expressed in transfected cells; host or cells: COS7 cells, treated with 100 μM CoCl2 or vehicle; whole cell extract used
T2 sequence (Q16665 whole entry): as the sequence (Q16665 whole entry) above
Protocol: as §1, with “assays.” for “assays. Luciferase values are presented as relative luciferase activity as described in the legend to FIG. 1. The results of two independent experiments performed in duplicate +S.E. are shown. (D) In vitro interaction between SRC-1 and HIF-1α. COS7 cells were transfected with 10 μg of the expression plasmid pGST-HIF-1α (GST-HIF) or empty GST expression vector (GST). Cells were exposed to either 100 μM CoCl2 or vehicle (H2O) for 24 h.”

Molecule: [Cl-].[Cl-].[Co+2] [CoCl2]
effect on nuclear import of GFP-HIF-1α [1]: induced nuclear import of GFP-HIF-1α

hypoxia-dependent activation of GAL4 reporter gene activity ([2]; 1% O2 vs normoxia, no exogenous coactivator): about 2 fold
stimulation of GAL4 reporter activity by coexpressed CBP ([2]; hypoxic conditions, vs hypoxia without exogenous coactivator): 19 fold
binding to GST/Ref-1 (in words) [3]: weakly bind GST/Ref-1
Molecule: GAL4-HIF-1α: full length HIF-1α fused to the GAL4 DNA binding domain

increase of reporter gene activity by hypoxia ([4]; coexpression of HIF-1α and Arnt, 1% O2): ~1.5 fold
stimulation of pT81/HRE-luc reporter gene activity ([4]; coexpression of HIF-1α and Arnt, normoxic conditions): around 10 fold
Molecule: HIF-1α: transiently expressed wild-type human hypoxia-inducible factor-1α
stimulation of HRE reporter gene activity by hypoxia compared to normoxia [5]: about 2 fold

enhancement of transcriptional activity of HIF-1α ([4]; normoxic conditions, COS7): around 3 fold
binding to GST-HIF-1α (in words) ([6]; extract of cells treated with 100 μM CoCl2): specifically retained
binding to GST-HIF-1α (in words) ([6]; extract of non-treated cells): no significant binding
Molecule: SRC-1: p160 family transcriptional coactivator

activation of the reporter gene over the levels observed at normoxia ([4]; coexpression with HIF-1α, COS7): around 12 fold
Molecule: TIF2: p160 family transcriptional coactivator
